Measurements reported in PMC3188500.
pKd: −log10 of the molar value.

Target: TATA binding protein (TBP) (UniProt P20226)
Experiment: fluorescence (FAM/BHQ transcription factor beacon titration)
Conditions: 5 mM MgCl2; no depletant; value stated in text next to ref 35, may come from it; internal BHQ after the T at position 20; 50 mM sodium phosphate pH 7.0, 150 mM NaCl, 5 mM MgCl2, 25 °C; 10 nM labeled TF switch

Chain of UniProt P20226 (P20226 whole entry): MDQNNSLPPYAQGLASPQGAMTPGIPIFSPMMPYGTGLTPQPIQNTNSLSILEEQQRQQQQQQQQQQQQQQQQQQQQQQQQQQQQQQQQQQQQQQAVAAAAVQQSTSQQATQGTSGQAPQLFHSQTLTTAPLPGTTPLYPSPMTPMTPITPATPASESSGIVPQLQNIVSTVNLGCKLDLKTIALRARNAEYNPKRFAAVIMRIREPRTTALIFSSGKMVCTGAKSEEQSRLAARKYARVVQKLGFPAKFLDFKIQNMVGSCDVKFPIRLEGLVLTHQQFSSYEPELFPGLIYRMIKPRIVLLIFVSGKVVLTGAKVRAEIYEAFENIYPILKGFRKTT

## TACTTTTATATAAATAAGTTGTGATTTTTATATATTTCAC [TFprobe (transcription factor beacon/switch)]
  pKd: 7.35
